Results reported in US12209122.
Where a chain is given by its changes, count along the chain named. In names and notes the source's numbering stands.

B1: humanized IgG of clone 16-22-H05 (antibody, V domains shown)
VH: EVQLVESGGGLVQPGGSLRLSCKASGIDFNNYGIGWVRQAPGKGLEWITYIYPGFAITNFANSVKGRFTISSDNSKNTVYLQMNSLRAEDTAVYYCARDPVYATSSGYFDLWGQGTLVTVSS
VL: DIQMTQSPSSLSASVGDRVTIKCQASQSIFSGLAWYQQKPGKAPKLLIYGASKLASGVPSRFSGSGSGTEFTLTISGLQPADFATYYCQSYYYSSSSSDGSYAFGGGTKLTVLG
notes: Transiently expressed in CHO S cells and purified on Protein A; also called 16-22-H5-IgG
B2: humanized scFv 16-22-H05-sc02 (structural graft, STR) (scFv)
scFv: MDIQMTQSPSSLSASVGDRVTIKCQASQSIFSGLAWYQQKPGKAPKLLIYGASKLASGVPSRFSGSGSGTEFTLTISGLQPADFATYYCQSYYYSSSSSDGSYAFGGGTKLTVLGGGGGSGGGGSGGGGSGGGGSEVQLVESGGGLVQPGGSLRLSCKASGIDFNNYGIGWVRQAPGKGLEWITYIYPGFAITNFANSVKGRFTISSDNSKNTVYLQMNSLRAEDTAVYYCARDPVYATSSGYFDLWGQGTLVTVSS
notes: also called 16-22-H5-sc02; 16-22-H04-sc02 [sic]
B3: 16-22-H5-scFv (scFv format of Examples 3 to 7) (scFv)
chain: B2 scFv
B4: humanized scFv 16-22-H05-sc04 (CDR grafted light chain, structural grafted heavy chain, CDR/STR) (scFv)
scFv: B2 scFv with K23T
notes: also called 16-22-05-sc04
B5: recombinant human TNFβ (Peprotech, Cat. No. 300-01B) (ligand, UniProt P01374 35-205, looked up)
chain: LPGVGLTPSAAQTARQHPKMHLAHSTLKPAAHLIGDPSKQNSLLWRANTDRAFLQDGFSLSNNSLLVPTSGIYFVYSQVVFSGKAYSPKATSSPLYLAHEVQLFSSQYPFHVPLLSSQKMVYPGLQEPWLHSMYHGAAFQLTQGDQLSTHTDGIPHLVLSPSTVFFGAFAL
B6: humanized single-chain diabody of clone 16-22-H05 (other)
chain: MDIQMTQSPSSLSASVGDRVTIKCQASQSIFSGLAWYQQKPGKAPKLLIYGASKLASGVPSRFSGSGSGTEFTLTISGLQPADFATYYCQSYYYSSSSSDGSYAFGGGTKLTVLGGGGGSEVQLVESGGGLVQPGGSLRLSCKASGIDFNNYGIGWVRQAPGKGLEWITYIYPGFAITNFANSVKGRFTISSDNSKNTVYLQMNSLRAEDTAVYYCARDPVYATSSGYFDLWGQGTLVTVSSGGGGSGGGGSGGGGSGGGGSDIQMTQSPSSLSASVGDRVTIKCQASQSIFSGLAWYQQKPGKAPKLLIYGASKLASGVPSRFSGSGSGTEFTLTISGLQPADFATYYCQSYYYSSSSSDGSYAFGGGTKLTVLGGGGGSEVQLVESGGGLVQPGGSLRLSCKASGIDFNNYGIGWVRQAPGKGLEWITYIYPGFAITNFANSVKGRFTISSDNSKNTVYLQMNSLRAEDTAVYYCARDPVYATSSGYFDLWGQGTLVTVSS
notes: Single-chain diabody VLA-L1-VHB-L2-VLB-L3-VHA, bivalent for TNFα; L1 and L3 are G4S, L2 is (G4S)4; also called 16-22-H5-scDb; scDb

How the values were obtained:
[1] = target: T1, recombinant human TNFα (Peprotech, Cat. No. 300-01) (human, UniProt P01375 77-233); experiment: SPR as in Example 2 under 2.1.1
T1 construct: also called TNFαtrimer; biotinylated TNFα

[2] = target: T1, recombinant human TNFα (Peprotech, Cat. …); experiment: cell-based or functional assay
[3] = target: T2, Rhesus monkey TNFα (R&D Systems, Cat. No. 1070-RM-025/CF) (Rhesus monkey (Macaca mulatta), UniProt P48094 77-233); experiment: SPR (MASS-1), Rhesus TNFα immobilized, scFv 45 to 1.4 nM
T2 construct: also called Rhesus TNFα; rhesus TNF
Method: (§1) In a second step, for the best performing scFvs, Single Injection Cycle Kinetics (SiCK) were measured from a single injection cycle by simultaneously injecting six analyte samples at different concentrations into each of the eight parallel channels in the MASS-1 system. […] The apparent dissociation (k_d) and association (k_a) rate constants and the apparent dissociation equilibrium constant (K_D) were calculated with the MASS-1 analysis software (Analyzer, Sierra Sensors) using one-to-one Langmuir binding model and quality of the fits was monitored based on Chi^2, which is a measure for the quality of the curve fitting. The smaller the value for the Chi^2 the more accurate is the fitting to the one-to-one Langmuir binding model. For affinity screenings, results were deemed valid if the Chi^2 was below 10 for the concentration analyzed. In cases where several scFv concentrations were analyzed, results were deemed valid if the average Chi^2 over all the concentrations tested was below 10.

[4] = target: T1, recombinant human TNFα (Peprotech, Cat. …); experiment: cell-based or functional assay; remark: listed apart in the source
[5] = target: T3, recombinant Cynomolgus monkey TNFα (Sino Biological, Cat. No. 90018-CNAE) (Cynomolgus monkey (Macaca fascicularis), UniProt P79337 77-233); experiment: cell-based or functional assay
[6] = target: T2, Rhesus monkey TNFα (R&D Systems, Cat. …); experiment: cell-based or functional assay
[7] = target: T1, recombinant human TNFα (Peprotech, Cat. …); experiment: SPR (MASS-1), TNFα immobilized, scFv 45 to 1.4 nM
Method: In a second step, for the best performing scFvs, Single Injection Cycle Kinetics (SiCK) were measured from a single injection cycle by simultaneously injecting six analyte samples at different concentrations into each of the eight parallel channels in the MASS-1 system. […] The apparent dissociation (k_d) and association (k_a) rate constants and the apparent dissociation equilibrium constant (K_D) were calculated with the MASS-1 analysis software (Analyzer, Sierra Sensors) using one-to-one Langmuir binding model and quality of the fits was monitored based on Chi^2, which is a measure for the quality of the curve fitting.

[8] = target: T3, recombinant Cynomolgus monkey TNFα …; experiment: SPR, TNFα immobilized, scFv injected
Method: as §1

[9] = target: T2, Rhesus monkey TNFα (R&D Systems, Cat. …); experiment: SPR, TNFα immobilized, scFv injected
Method: as §1

[10] = target: T1, recombinant human TNFα (Peprotech, Cat. …); experiment: inhibition ELISA, blocking of TNFα binding to coated TNFRI-Fc; reference infliximab
Excerpt: (§2) For the first inhibition ELISA, the extracellular domain of TNFRI fused to the Fc region of human IgG (R&D Systems, Cat. No. 372-RI) was coated on a 96-well Maxisorp ELISA at a concentration of […]. […] All subsequent steps were identical for both assays.

[11] = target: B5; experiment: competition ELISA, coated scFv, biotinylated TNFα, unlabeled TNFβ
Method: (§3) For this purpose, the scFvs were coated on a 96-well Maxisorp ELISA plate at a concentration of 1 μg/ml. […] To control precision of the response, the dose-response curves were analyzed in duplicate.

[12] = target: T1, recombinant human TNFα (Peprotech, Cat. …); experiment: inhibition ELISA, blocking of TNFα binding to coated TNFRI-Fc
Excerpt: as §2

[13] = target: T1, recombinant human TNFα (Peprotech, Cat. …); experiment: inhibition ELISA, blocking of TNFα binding to coated TNFRII-Fc; reference infliximab
[14] = target: T1, recombinant human TNFα (Peprotech, Cat. …); experiment: inhibition ELISA, blocking of TNFα binding to coated TNFRII-Fc
Excerpt: as §2

[15] = target: T3, recombinant Cynomolgus monkey TNFα …; experiment: SPR (MASS-1), cyno TNFα immobilized, scFv 45 to 1.4 nM
Method: as §1

[16] = target: B2; experiment: competition ELISA, coated scFv, biotinylated TNFα, unlabeled TNFβ against unlabeled TNFα
Method: as §3

[17] = target: B4; experiment: as above
Method: as §3

[18] = target: B2; experiment: competition ELISA, coated scFv, biotinylated TNFα 75 ng/ml, unlabeled TNFβ varied
Method: as §3

[19] = target: B4; experiment: as above
Method: as §3

T3 sequence (P79337 77-233 limits assumed): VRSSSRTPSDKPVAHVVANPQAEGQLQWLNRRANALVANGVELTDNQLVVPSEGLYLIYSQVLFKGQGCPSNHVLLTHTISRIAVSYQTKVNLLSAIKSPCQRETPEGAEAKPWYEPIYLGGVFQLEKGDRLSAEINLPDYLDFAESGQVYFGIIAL
T2 sequence (P48094 77-233 limits assumed): as the sequence (P79337 77-233 limits assumed) above, with V37L counted along it
T1 sequence (P01375 77-233 limits assumed): as the sequence (P79337 77-233 limits assumed) above, with V37L, T44R, N72T, L138R counted along it

| Binder | Kd [1] [nM] | koff [1] [s⁻¹] | kon [1] [M⁻¹ s⁻¹] | Potency IC50 (nM), L929 assay [2] [nM] | Potency in L929 assay, rel. IC50 (IC50 infliximab / IC50 scFv, ng/ml) [4] [fold] | Potency in L929 assay, rel. IC90 (IC90 infliximab / IC90 scFv, ng/ml) [4] [fold] | Species-specificity IC50 [ng/ml], L929 assay, human TNFα [4] [ng/mL] | Species-specificity IC50 [ng/ml], L929 assay, cyno TNFα [5] [ng/mL] | Species-specificity IC50 [ng/ml], L929 assay, Rhesus TNFα [6] [ng/mL] | Kd [7] [nM] | koff [7] [s⁻¹] | kon [7] [M⁻¹ s⁻¹] | rel. IC50 (IC50 infliximab / IC50 scFv, ng/mL) [10] [fold] | rel. IC90 (IC90 infliximab / IC90 scFv, ng/mL) [10] [fold] | binding result [11] | IC50 [12] [µg/mL] | rel. IC50 (IC50 infliximab / IC50 scFv, ng/mL) [13] [fold] | rel. IC90 (IC90 infliximab / IC90 scFv, ng/mL) [13] [fold] | IC50 [14] [µg/mL] | also measured |
| --- | --- | --- | --- | --- | --- | --- | --- | --- | --- | --- | --- | --- | --- | --- | --- | --- | --- | --- | --- | --- |
| B1 | 0.0417 | 7.92e-05 | 1.9e+06 | 0.02 |  |  |  |  |  |  |  |  |  |  |  |  |  |  |  |  |
| B2 |  |  |  |  | 13.1 | 12.6 | 0.6 | 2.9 | 3 | 0.045 | 4.3e-05 | 960000 | 3.5 | 2.4 | no binding (tested: 1250 µg/ml) | 0.0139 | 5.7 | 3.3 | 0.02 | Kd [3]: 0.23 nM; koff [3]: 0.00015 s⁻¹; kon [3]: 670000 M⁻¹ s⁻¹; fold difference in affinity against human TNFα [8]: ~5 fold; fold difference in affinity against human TNFα [9]: ~5 fold; Kd [15]: 0.2 nM; koff [15]: 9.6e-05 s⁻¹; kon [15]: 490000 M⁻¹ s⁻¹ |
| B3 | 0.0379 | 3.38e-05 | 893000 | 0.03 |  |  |  |  |  |  |  |  |  |  |  |  |  |  |  |  |
| B4 |  |  |  |  | 14.6 | 13.1 | 0.5 | 3.5 | 2.9 | 0.11 | 7.1e-05 | 680000 | 2.8 | 2.1 | no binding (tested: 1250 µg/ml) | 0.0177 | 3.5 | 1.5 | 0.0326 |  |
| B5 |  |  |  |  |  |  |  |  |  |  |  |  |  |  |  |  |  |  |  | Target selectivity, rel. IC50 of TNFβ vs TNFα [16]: > 10000 fold; Target selectivity, rel. IC50 of TNFβ vs TNFα [17]: > 10000 fold; IC50 [18]: > 1250 µg/mL; IC50 [19]: > 1250 µg/mL |
| B6 | 0.0215 | 2.02e-05 | 940000 | 0.01 |  |  |  |  |  |  |  |  |  |  |  |  |  |  |  |  |
